These results are taken from PMC8119676, “Human ribonuclease 1 serves as a secretory ligand of ephrin A4 receptor and induces breast tumor initiation” (Nature Communications, 2021).

Where only a bound is given, the exact number is not on record here.

Test [1] deals with EphA4 (Homo sapiens) (UniProt P54764). Particulars: cited from earlier work.
The target of test [2] is T1, endogenous EphA4 (human (endogenous in MCF7, BT-549, KPL4), UniProt P54764-1 20-986).
T1 construct: EphA4 receptor tyrosine kinase, endogenous in human breast cancer cell lines; On cells in the co-IP (ligand added to cells, DSP fixed) and in the PLA; also called ephrin A4 receptor
T1 sequence (P54764 20-986): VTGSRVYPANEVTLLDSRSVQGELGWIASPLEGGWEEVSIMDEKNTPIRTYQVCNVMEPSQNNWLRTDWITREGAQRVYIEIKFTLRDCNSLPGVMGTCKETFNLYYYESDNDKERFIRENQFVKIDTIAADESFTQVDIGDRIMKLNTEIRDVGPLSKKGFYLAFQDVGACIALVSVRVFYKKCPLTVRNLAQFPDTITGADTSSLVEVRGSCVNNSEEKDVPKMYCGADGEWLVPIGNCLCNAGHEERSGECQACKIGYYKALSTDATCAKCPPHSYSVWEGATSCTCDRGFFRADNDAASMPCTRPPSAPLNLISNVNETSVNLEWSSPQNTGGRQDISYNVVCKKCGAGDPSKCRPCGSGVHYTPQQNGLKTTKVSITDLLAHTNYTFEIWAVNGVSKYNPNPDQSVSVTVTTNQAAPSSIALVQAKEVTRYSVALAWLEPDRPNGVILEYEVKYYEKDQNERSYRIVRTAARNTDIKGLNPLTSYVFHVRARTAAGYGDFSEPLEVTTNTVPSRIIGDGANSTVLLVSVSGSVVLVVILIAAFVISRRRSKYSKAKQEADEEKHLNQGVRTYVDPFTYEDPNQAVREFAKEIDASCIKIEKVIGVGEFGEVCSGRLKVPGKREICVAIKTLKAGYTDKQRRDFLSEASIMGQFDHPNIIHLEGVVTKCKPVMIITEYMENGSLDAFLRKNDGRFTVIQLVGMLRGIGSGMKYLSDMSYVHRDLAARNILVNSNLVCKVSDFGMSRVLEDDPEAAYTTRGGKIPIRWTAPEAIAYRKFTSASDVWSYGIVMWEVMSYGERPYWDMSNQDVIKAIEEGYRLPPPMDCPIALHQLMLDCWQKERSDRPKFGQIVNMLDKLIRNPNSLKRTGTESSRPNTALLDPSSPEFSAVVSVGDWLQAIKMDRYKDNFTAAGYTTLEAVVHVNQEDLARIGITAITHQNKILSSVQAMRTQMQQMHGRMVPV
Kind of test: ELISA; saturation binding; EphA4 captured from BT-549 RIPA lysates on plates coated with EphA4 antibody; dilution series of recombinant hRNase 1 or ephrin-A5 in RIPA buffer overnight at 4 °C; biotin-conjugated detection antibodies; Kd estimated, Scatchard plot. Particulars: one partner purified.

In test [3] the target is T1, endogenous EphA4. Kind of test: cell-based or functional assay.

EphA4 (Homo sapiens), sequence (P54764 20-547): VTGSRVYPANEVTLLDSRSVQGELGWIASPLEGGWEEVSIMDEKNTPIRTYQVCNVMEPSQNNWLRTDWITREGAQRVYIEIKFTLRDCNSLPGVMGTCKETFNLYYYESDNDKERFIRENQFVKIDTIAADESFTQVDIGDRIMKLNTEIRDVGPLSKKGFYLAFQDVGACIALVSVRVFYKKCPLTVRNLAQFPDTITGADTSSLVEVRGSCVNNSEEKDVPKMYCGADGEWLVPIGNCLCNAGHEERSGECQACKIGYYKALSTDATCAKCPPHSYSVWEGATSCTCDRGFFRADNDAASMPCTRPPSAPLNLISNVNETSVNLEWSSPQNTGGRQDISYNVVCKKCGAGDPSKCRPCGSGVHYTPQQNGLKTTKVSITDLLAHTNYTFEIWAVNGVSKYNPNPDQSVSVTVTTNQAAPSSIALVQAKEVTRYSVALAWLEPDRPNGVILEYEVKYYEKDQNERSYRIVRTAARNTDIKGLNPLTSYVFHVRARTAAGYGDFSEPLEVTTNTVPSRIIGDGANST

As for Ephrin-A5 (from UniProt P52803), the Kd in test [1] was less than 10 nM.

B1: recombinant ephrin-A5 (ligand, UniProt P52803 21-203, looked up)
chain: QDPGSKAVADRYAVYWNSSNPRFQRGDYHIDVCINDYLDVFCPHYEDSVPEDKTERYVLYMVNFDGYSACDHTSKGFKRWECNRPHSPNGPLKFSEKFQLFTPFSLGFEFRPGREYFYISSAIPDNGRRSCLKLKVFVRPTNSCMKTIGVHDRVFDVNDKVENSLEPADDTVHESAEPSRGEN
notes: ephrin-A5, recombinant; 5.6 nM is printed as equivalent to 0.15 μg/ml, which implies about 27 kDa
For B1, the Kd in test [2] is 5.6 nM.

B2: recombinant hRNase 1 protein purified from HEK293 cells (enzyme, human, UniProt P07998 29-156, looked up)
chain: KESRAKKFQRQHMDSDSSPSSSSTYCNQMMRRRNMTQGRCKPVNTFVHEPLVDVQNVCFQEKVTCKNGQGNCYKSNSSMHITDCRLTNGSRYPNCAYRTSPKERHIIVACEGSPYVPVHFDASVEDST
modifications: N-linked glycosylation, heterogeneous (glycosylated and non-glycosylated bands; sites reported at Asn-34, Asn-76, Asn-88)
notes: human ribonuclease 1 (hRNase 1), bought recombinant protein; The ELISA methods say only 'recombinant hRNase 1'; also called human ribonuclease 1; source: bought: Sino Biological Inc. #13468-H08H, purified from HEK293 cells
Take B2: the “EC50 of EphA4 phosphorylation (pY779-EphA4, WB) in BT-549 cells treated with hRNase 1 at various concentrations for 30 min” value in test [3] was 9.85 nM. The Kd in test [2] was 92.4 nM.
